Reference: patent US7250164

Molecular target: HmenB3 monoclonal antibody against Neisseria meningitidis serogroup B capsular polysaccharide
Experiment: cell-based or functional assay

B1: Naid60 anti-idiotypic monoclonal antibody (Ab2) to HmenB3 (antibody, IgG1, V domains shown)
VH: EVKLVESGGGLVQPGGSLKLSCATSGFLFTDYYMFWVRQTPEKRLEWVAYISNGGGDTYYPDTVKGRFTISRDNAKNALYLQMSRLKSEDTAMYYCARHKGYYGYYYALDYWGQGT
VL: DIQLTQSPATLSVTPGDSVSLSCRASQSISNNLHWYQQKSHESPRLLIKYASQSISGIPSRFSGSGSGTDFTLSINSVETEDFGMYFCQQSNNWPLTFGAGTK
  bacterial cell death rate (complement-mediated bactericidal activity of HmenB3 against NMGB) at 4 mg/L Naid60: 57.7%
  bacterial cell death rate (complement-mediated bactericidal activity of HmenB3 against NMGB) at 40 mg/L Naid60: 0%
